In PMC3962013 (Cell, 2014):
Where a chain is given by its changes, count along the chain named.

T1: C. elegans SYG-2 ectodomain (C. elegans, UniProt Q9U3P2 20-1084)
T1 sequence (looked up): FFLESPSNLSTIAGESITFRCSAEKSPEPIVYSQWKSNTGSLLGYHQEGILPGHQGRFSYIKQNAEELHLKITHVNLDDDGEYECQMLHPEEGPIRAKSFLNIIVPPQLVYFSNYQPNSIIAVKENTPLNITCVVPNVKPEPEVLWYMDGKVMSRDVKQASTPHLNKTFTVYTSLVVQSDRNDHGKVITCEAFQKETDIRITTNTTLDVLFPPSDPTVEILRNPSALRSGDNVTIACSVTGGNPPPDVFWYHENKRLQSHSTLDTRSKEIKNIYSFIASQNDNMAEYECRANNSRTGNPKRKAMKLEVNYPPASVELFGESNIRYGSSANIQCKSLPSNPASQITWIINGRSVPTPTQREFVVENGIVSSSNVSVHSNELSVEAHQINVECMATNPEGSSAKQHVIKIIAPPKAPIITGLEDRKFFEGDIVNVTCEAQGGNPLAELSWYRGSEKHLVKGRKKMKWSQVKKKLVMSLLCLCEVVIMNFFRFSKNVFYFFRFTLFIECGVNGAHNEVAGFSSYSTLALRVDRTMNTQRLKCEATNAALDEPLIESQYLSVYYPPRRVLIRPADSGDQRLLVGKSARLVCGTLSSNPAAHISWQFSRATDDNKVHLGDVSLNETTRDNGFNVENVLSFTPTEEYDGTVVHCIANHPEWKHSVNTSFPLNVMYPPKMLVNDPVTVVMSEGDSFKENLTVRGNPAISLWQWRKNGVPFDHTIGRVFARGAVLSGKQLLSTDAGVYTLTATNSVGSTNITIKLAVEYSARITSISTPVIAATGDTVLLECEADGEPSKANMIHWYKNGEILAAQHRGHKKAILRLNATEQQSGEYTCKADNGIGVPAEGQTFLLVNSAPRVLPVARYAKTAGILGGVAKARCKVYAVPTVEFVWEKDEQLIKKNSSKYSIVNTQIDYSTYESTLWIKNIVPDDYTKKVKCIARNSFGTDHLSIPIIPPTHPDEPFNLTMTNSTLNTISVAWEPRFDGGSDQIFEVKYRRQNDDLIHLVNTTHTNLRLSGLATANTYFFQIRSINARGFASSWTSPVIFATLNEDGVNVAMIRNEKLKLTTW

B1: C. elegans SYG-1 ectodomain (domain or fragment, UniProt B1Q236 19-551, looked up)
chain: QQLQQRIVEAPKDTLAAVGETAILTCRVEHQQGPVQWMKDDFGLGTDRDKPLPGNKRYRMVGSAANGEYNLEISNVTLFDDDDFACQISESDHAKAVVSSKAKLTVLVRPTPPKIVKSHHSLKAIAGDPITQSCLSRKGKPPPTIGWAIASDEHGKHIVSWLGESRSKFGGIHAKPEISQETVIAHVNETTQVEEGGNNSREDSSIYSIMSNLSFIPRPEDDHKYLICISQHMTFPNKIEVDSVKLSLRYAPQINLTVASKLPLRENGSALLACNVNAKPLDNVKISWYKGNQKLRETGDTLTFETLKMEDHNRDIFCEATNEIGTTRGSIKLNVAFGARIMSTSQDKEVNEGDNAFFHCATLANPAPAIFWTRGDSDEIIGHGENLTLENVRTWQQGNYNCTATVEGFRKQILSHYLHIRGPPTVSMKDEVSASLDEATEIICEISGRPKTNNVRWTVNGKEINFNNGRITVHQYPKPYGKESILKIKDLKEEDFGVYNCSANNGLGFDNRGTLLKKRNILDWIVITAKFDR
B2: SYG-1 Q54 mutant (domain or fragment)
chain: B1 chain with Q36A

Legend:
[1] = molecular target: T1, C. elegans SYG-2 ectodomain; assay: ITC + SPR
[2] = molecular target: wild type SYG-2 (SPR series with mutants, construct not stated) (C. elegans); assay: SPR

Binder	Kd [1] [nM]	fold weaker affinity than wild-type SYG-1 [2] [fold]
B1	~600	
B2		7
